Literature values as cited in PMC3061301.

Molecular target: PTP-BL (Mus musculus) (UniProt Q64512)
Assay: surface plasmon resonance

UniProt Q64512, sequence (Q64512 whole entry): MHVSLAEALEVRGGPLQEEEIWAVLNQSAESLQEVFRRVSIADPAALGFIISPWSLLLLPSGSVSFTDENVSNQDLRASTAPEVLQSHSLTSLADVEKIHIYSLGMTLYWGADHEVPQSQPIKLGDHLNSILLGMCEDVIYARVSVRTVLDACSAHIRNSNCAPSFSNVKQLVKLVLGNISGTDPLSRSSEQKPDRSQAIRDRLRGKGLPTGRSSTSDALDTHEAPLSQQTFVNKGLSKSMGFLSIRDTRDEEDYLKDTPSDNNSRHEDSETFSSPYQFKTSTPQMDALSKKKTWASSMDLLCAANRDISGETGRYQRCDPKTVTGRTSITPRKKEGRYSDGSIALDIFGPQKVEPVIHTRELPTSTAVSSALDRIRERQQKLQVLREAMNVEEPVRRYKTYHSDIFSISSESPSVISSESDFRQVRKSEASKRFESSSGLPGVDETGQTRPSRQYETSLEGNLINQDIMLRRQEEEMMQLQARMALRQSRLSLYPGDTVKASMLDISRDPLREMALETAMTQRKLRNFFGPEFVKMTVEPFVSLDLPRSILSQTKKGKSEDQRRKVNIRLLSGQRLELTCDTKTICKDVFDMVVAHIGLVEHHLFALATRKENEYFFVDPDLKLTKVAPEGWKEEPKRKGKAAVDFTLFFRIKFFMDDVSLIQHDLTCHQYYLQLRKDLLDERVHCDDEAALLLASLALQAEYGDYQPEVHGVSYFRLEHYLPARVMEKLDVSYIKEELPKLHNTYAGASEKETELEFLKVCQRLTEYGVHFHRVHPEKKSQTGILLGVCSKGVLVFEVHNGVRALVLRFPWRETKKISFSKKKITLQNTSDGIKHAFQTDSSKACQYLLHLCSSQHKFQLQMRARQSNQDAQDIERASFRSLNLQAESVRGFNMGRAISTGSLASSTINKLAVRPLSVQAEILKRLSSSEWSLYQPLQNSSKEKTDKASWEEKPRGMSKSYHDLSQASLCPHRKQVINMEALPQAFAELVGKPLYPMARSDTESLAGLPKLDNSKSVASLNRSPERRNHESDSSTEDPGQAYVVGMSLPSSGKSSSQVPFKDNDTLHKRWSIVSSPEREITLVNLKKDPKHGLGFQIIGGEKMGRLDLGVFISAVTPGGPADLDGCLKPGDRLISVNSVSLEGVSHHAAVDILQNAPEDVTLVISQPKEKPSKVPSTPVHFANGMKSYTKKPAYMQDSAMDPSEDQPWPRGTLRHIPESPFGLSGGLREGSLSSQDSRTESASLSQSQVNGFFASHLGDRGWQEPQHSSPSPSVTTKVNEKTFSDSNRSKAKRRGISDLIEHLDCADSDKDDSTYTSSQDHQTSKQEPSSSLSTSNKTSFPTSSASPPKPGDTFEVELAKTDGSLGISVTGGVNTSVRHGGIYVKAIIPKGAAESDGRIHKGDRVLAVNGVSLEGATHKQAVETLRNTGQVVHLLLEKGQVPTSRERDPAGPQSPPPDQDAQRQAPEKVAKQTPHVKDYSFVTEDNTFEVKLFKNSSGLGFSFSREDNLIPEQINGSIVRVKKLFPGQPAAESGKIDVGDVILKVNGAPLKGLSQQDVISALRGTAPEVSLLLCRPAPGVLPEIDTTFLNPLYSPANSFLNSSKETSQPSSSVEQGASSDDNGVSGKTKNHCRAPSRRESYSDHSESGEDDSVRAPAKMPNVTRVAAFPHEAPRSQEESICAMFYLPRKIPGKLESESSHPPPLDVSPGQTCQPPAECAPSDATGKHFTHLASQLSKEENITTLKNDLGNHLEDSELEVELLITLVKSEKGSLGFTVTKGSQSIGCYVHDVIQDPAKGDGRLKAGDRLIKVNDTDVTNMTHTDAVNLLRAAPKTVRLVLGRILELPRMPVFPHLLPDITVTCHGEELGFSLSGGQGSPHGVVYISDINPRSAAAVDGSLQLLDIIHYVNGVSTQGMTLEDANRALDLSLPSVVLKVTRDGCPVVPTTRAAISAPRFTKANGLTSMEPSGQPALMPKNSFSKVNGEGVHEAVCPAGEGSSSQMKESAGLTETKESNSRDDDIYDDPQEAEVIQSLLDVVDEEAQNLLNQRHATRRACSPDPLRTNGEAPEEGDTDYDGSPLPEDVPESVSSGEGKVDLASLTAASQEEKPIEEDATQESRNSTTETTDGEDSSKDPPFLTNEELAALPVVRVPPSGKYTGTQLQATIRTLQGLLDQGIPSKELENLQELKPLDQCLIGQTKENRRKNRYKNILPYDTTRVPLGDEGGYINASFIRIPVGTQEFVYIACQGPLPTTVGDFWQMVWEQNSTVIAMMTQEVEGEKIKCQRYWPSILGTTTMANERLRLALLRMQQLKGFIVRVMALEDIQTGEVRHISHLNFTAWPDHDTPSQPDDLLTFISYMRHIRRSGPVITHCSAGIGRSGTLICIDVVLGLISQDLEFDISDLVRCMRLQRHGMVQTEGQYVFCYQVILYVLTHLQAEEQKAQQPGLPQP

For “APC C-terminal 19 amino acids (from UniProt P25054)”, the Kd is given as 8 nM.
